Among the data in PMC5437018 are Kd, fold decrease in affinity against wild type and affinity as percent of the wild-type interaction values, retold here.

Assay [1] has as its target PP1 (Homo sapiens) (UniProt P62136). The following applies: cited from earlier work.
The target is the same in assay [2]. The conditions noted are these: cited from earlier work. This is another data set of the same source.
Assay [3] shares this target. The following applies: cited from earlier work. This is another data set of the same source.
Assay [4] deals with Recombinant purified α-isoform of mammalian PP1 (residues 1–330), tag cleaved (mammalian) (UniProt P62136). The assay is described as follows: SPR; Biacore 3000; PP1 covalently coupled to a CM5 chip; Rif1 CRI, mutants and peptide injected at 20 µl/min in 10 mM Tris-HCl pH 7.5, 250 mM NaCl, 1 mM DTT, 2 mM MnCl2, 0.005% Tween 20; 1:1 binding model.
Recombinant purified α-isoform of mammalian PP1 (residues 1–330), tag cleaved (mammalian), sequence (P62136 whole entry, the tested form may be a part, canonical isoform): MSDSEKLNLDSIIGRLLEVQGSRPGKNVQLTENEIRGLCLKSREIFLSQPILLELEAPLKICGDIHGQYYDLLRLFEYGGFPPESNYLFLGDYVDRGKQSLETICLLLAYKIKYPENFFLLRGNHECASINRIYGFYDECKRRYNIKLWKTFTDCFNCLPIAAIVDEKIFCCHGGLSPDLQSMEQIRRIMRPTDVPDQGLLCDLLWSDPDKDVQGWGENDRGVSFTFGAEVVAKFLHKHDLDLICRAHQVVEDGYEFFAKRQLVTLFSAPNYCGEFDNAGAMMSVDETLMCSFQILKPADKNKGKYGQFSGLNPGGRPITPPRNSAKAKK
The target in assay [5] is PP1 (Homo sapiens) (UniProt P62136). The conditions noted are these: cited from earlier work. The source holds these as a separate data set.
PP1 (Homo sapiens), sequence (P62136 2-330): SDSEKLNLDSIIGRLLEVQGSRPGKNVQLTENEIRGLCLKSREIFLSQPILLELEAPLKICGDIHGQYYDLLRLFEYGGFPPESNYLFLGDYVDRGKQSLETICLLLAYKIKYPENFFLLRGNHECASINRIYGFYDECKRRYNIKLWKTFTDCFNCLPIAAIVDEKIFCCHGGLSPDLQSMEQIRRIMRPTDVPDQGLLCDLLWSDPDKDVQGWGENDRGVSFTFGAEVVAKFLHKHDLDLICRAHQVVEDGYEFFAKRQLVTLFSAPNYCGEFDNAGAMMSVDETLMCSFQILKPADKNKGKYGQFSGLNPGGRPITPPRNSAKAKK

Where two headings read alike, the source gives them in different places. Some results are limits rather than exact numbers.

GADD34, sequence (O75807 whole entry): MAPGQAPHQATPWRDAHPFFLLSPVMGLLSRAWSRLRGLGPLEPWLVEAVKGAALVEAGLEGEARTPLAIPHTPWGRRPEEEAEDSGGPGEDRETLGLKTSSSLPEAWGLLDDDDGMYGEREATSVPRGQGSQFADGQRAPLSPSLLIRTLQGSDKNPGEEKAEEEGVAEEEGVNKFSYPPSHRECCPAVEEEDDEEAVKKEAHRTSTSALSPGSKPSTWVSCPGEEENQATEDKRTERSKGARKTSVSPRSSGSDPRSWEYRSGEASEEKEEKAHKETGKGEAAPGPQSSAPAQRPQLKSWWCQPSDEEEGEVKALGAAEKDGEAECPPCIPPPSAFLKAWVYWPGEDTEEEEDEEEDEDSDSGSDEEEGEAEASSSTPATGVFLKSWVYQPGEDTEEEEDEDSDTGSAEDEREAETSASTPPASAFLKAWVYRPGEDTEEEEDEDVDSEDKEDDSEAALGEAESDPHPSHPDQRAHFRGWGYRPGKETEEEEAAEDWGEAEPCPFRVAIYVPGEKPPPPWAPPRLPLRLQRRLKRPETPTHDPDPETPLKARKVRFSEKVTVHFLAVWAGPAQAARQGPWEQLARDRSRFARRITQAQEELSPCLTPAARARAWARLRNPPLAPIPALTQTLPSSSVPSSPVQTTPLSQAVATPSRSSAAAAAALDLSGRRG
spinophilin, sequence (O35274 417-494): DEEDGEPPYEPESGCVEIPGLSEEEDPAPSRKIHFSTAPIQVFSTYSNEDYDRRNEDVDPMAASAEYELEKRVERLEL
NIPP1, sequence (Q12972 whole entry): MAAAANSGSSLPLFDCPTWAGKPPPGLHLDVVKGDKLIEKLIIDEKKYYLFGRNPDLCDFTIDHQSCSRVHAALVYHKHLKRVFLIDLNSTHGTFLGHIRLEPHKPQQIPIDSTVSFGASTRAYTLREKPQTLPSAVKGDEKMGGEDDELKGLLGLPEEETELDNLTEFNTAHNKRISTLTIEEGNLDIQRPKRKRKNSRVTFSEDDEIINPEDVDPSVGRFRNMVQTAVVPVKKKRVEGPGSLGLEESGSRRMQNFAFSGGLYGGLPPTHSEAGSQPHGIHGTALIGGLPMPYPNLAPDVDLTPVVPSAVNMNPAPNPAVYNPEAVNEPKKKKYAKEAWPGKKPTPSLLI
PNUTS, sequence (Q96QC0 whole entry): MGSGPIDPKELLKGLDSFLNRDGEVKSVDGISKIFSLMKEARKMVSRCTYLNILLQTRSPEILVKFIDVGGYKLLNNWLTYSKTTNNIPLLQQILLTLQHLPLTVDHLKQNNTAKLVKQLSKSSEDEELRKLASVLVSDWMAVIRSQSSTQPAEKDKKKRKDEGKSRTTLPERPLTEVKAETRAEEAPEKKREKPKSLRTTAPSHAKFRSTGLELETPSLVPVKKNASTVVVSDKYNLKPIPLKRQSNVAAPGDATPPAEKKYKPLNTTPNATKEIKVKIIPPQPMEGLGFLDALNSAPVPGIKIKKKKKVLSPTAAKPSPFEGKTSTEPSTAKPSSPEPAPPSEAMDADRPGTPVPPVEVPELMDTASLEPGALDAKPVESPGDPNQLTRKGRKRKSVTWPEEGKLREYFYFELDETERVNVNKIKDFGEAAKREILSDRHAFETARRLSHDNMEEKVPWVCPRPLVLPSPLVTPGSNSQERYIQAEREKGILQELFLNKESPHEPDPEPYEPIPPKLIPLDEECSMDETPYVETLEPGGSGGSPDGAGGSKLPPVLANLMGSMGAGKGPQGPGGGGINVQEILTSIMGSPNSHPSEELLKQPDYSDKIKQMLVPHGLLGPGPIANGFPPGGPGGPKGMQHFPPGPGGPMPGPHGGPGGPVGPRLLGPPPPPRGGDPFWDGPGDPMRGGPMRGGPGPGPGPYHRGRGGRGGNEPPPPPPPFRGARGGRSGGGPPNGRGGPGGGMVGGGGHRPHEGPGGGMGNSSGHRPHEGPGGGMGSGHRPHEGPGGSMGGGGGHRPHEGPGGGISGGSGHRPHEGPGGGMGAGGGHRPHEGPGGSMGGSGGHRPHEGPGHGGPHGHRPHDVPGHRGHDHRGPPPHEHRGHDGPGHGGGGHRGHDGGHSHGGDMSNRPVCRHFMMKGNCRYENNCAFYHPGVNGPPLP

A word on the Kd: it is the free concentration of one partner at which half of the binding sites on the other are occupied at equilibrium, for simple one-to-one binding. For GADD34 (from UniProt O75807), the Kd in assay [1] is 62 nM. NIPP1 (from UniProt Q12972): in assay [2], the Kd was 73 nM. As for PNUTS (from UniProt Q96QC0), in assay [3], the Kd is 8.7 nM. On to “Rif1 CRI (2093–2190) RVSF to RASF (from UniProt Q6PR54 2093-2190) (domain or fragment)”, for which, in assay [4], the fold decrease in affinity against wild type stood at 20 fold. Regarding “Rif1 CRI (2093–2190) RVSF to RVSA (from UniProt Q6PR54 2093-2190) (domain or fragment)”, the affinity as percent of the wild-type interaction in assay [4] is less than 0.1%. With “Rif1 CRI (2093–2190) SILK to SAAA (from UniProt Q6PR54 2093-2190) (domain or fragment)”, in assay [4], the fold decrease in affinity against wild type amounted to 20 fold. spinophilin (from UniProt O35274): the Kd in assay [5] was 9.3 nM.
